This is an account of results in paper PMC1796551, “Breast cancer metastasis suppressor 1 (BRMS1) inhibits osteopontin transcription by abrogating NF-κB activation”.

Holding throughout (settings): protein: commercial; chain copies: 2; label: biotin; only one strand given
Series [1] concerns the target p50 (Homo sapiens, UniProt P19838 1-433). Briefly: EMSA; 10 mM Tris, 50 mM KCl, 1 mM DTT, 5 mM MgCl2, 1 ug poly(dI-dC), 20 fmol biotinylated probe, 100 ng p65 or 66 ng p50, room temperature 30 min; pH not stated.
For series [2], the target named is T1, p65 (RelA) (Homo sapiens, UniProt Q04206 1-551). Kind of series: EMSA; supershift with anti-p65 (lane 6); 10 mM Tris, 50 mM KCl, 1 mM DTT, 5 mM MgCl2, 1 ug poly(dI-dC), 20 fmol biotinylated probe, 100 ng p65 or 66 ng p50, room temperature 30 min; pH not stated. (Mobility shift assays separate free from complexed probe on a gel.)
T1 sequence (Q04206 whole entry): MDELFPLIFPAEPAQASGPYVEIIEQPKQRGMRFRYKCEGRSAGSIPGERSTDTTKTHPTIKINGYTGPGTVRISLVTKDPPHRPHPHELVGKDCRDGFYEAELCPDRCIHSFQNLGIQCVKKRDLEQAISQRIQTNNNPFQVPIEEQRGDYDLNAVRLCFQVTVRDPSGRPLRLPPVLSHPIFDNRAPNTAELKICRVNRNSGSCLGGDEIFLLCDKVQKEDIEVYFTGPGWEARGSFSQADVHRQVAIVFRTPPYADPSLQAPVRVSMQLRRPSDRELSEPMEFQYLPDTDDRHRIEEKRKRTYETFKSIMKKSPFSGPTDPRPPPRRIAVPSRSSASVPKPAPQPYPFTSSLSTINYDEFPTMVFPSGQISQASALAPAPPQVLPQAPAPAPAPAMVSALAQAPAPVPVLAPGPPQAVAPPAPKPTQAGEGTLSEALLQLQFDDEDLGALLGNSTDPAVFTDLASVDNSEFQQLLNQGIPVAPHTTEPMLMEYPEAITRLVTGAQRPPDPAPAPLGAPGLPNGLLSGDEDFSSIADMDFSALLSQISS
Series [3] deals with T1, p65 (RelA). Briefly: EMSA; 10 mM Tris, 50 mM KCl, 1 mM DTT, 5 mM MgCl2, 1 ug poly(dI-dC), 20 fmol biotinylated probe, 100 ng p65 or 66 ng p50, room temperature 30 min; pH not stated.

Chain of p50 (P19838 1-433): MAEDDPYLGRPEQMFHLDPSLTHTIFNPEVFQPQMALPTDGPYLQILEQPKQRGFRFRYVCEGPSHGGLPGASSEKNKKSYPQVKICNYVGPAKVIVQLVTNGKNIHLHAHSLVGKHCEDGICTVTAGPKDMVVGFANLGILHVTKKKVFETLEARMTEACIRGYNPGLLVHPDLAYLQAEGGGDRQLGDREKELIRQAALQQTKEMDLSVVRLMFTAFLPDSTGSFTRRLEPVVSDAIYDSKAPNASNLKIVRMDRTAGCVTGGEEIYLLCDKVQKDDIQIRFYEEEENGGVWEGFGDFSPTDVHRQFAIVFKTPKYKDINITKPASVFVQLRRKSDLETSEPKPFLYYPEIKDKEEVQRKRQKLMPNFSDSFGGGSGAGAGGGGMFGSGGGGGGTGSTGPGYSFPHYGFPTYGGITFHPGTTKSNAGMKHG

B1: OPN/NF-kB (dsDNA)
DNA 1: GAATTTCATGGGGAAGTCCAAATTCTAAG
DNA 2: CTTAGAATTTGGACTTCCCCATGAAATTC
Turning to B1, the binding result in series [1] and in series [2] was “binds” in each case.

B2: Mut OPN/NF-kB (dsDNA)
DNA 1: GAATTTCATGCGGACTTCGAAATTCTAAG
DNA 2: CTTAGAATTTCGAAGTCCGCATGAAATTC
As for B2, the binding result in series [3] and in series [1] was “no binding” in each case.
